{"source": "patent US9428586B2", "about": "“Heparanase splice variant” (COMPUGEN LTD, priority 2010, dated 2016)", "molecules": {"B1": {"name": "T5: novel splice variant of heparanase; truncated, enzymatically inactive 169 amino acid protein (protein, listed as Homo sapiens)", "chain": "MLLRSKPALPPPLMLLLLGPLGPLSPGALPRPAQAQDVVDLDFFTQEPLHLVSPSFLSVTIDANLATDPRFLILLGSPKLRTLARGLSPAYLRFGGTKTDFLIFDPKKESTFEERSYWQSQVNQDICKYGSIPPDVEEKLRLEWPYQEQLLLREHYQKKFKNSTYSSKK"}}, "key": {"[1]": {"target": "Concanavalin A (Canavalia ensiformis, UniProt P02866)", "conditions": "lysates of over expressing 293 cells", "experimental": "FIG. 7. […] A. Cell lysates. […] Control (Vo), heparanase and T5 transfected 293 cells were left untreated (−) or incubated with heparin (+, 50 μg/ml) for 20 h under serum-free conditions. […] B,C. Peptide analysis. Peptides corresponding to the heparin binding domain of heparanase (KKDC) or T5 (CKKK) which includes its unique three amino acids (SKK), and control scrambled (Scr) peptide were subjected to gel electrophoresis prior to or following incubation with heparin beads (+Heparin). C. Enzymatic activity."}, "[2]": {"system": "CAG myeloma cells", "assay": "CAG myeloma tumor xenograft development and immunohistochemistry", "format": "in vivo, athymic nude mice", "experimental": "FIG. 5. T5 enhances tumor xenograft development. Control (Vo), heparanase-, and T5-infected CAG myeloma cells were injected subcutaneously (1×10^6/0.1 ml) and tumor volume was calculated (A). At the end of the experiment on day 37, tumors were resected, photographed (A, inset) and weighted (B). C. Immunohistochemical analysis. Paraffin-embedded 5 micron sections were stained with hematoxilin & eosin (left column), anti-CD31 (second left column), and anti-smooth muscle actin (SMA, two right columns) antibodies. Note increased blood vessels density and maturation (recruitment of SMA-positive cells) in xenografts produced by heparanase- and T5-infected cells. Cells from exponential cultures of control-, heparanase-, and T5-infected CAG myeloma cells were detached with trypsin/EDTA, washed with PBS and brought to a concentration of 1×10^7 cells/ml. Cell suspension (1×10 6/0.1 ml) was inoculated subcutaneously at the right flank of 5-weeks old female athymic nude mice (n=7). Xenograft size was determined twice a week by externally measuring tumors in two dimensions using a caliper. At the end of the experiment, mice were sacrificed and xenografts were removed, weighted and fixed in formalin. Paraffin-embedded 5 micron sections were subjected to immunostaining with anti-PECAM-1 (CD31) or anti-smooth muscle actin (1A4, Sigma) antibodies, using the Envision kit, according to the manufacturer's (Dako, Glostrup, Denmark) instructions, as described (Fux, L., et al., 2009, Cancer Res 69, 1758-1767). All animal experiments were approved by the Animal Care Committee of the Technion, Haifa, Israel."}, "[3]": {"assay": "Binding to heparin beads", "conditions": "lysates of over expressing 293 cells, heparin beads", "text": "FIG. 7. […] A. Cell lysates. […] B,C. Peptide analysis. […] C. Enzymatic activity."}, "[4]": {"assay": "Heparanase activity assay of transfected 293 cell lysates on 35S-labelled ECM", "format": "biochemical, human", "text": "FIG. 2. Cloning and expression of T5. A. RT-PCR analysis. Total RNA was extracted from the indicated cell line and subjected to RT-PCR analysis applying T5 (upper panel), heparanase (second panel) and GAPDH (third panel) specific primers, specified in the ‘Materials and Methods’ section. B. T5 transfection. […] Control cells were transfected with an empty vector (Vo). Cell lysates (left) and cell conditioned medium (right) were blotted with anti-heparanase 1453 antibody. C. Cellular localization. Stably transfected 293 cells were triple stained for Myc-tag (T5; middle, red), the ER marker calnexin (ER, left, green), and merged with cell nuclei labeled with TO-PRO (right, blue). Cells were similarly stained with anti-Myc-tag (T5; middle, red), the Golgi marker wheat germ agglutinin-FITC (Golgi, left, green) and merged with cell nuclei labeled with TO-PRO (right, blue). […] D. Enzymatic activity. 293 cells transfected with heparanase (Hepa), T5 or control empty vector (Vo) were subjected to three freeze-thaw cycles and applied onto culture dishes coated with ^35S-labelled ECM. Release of sulfate-labeled material eluted in fractions 15-30 was evaluated as measure of heparanase activity, as described in ‘Materials and Methods’. […]"}, "[5]": {"system": "HUVEC", "assay": "Tube-like structure formation on Matrigel", "format": "cell-based, human", "conditions": "T5 lenti virus infected HUVEC vs Vo, 24 h and 48 h", "experimental": "FIG. 9. A. Tube-like structure formation. Human umbilical vein endothelial cells (HUVEC) were infected with control (Vo) or T5 lenti virus constructs and plated on reconstituted basement membrane (Matrigel). Spontaneous organization into tube-like structures was examined after 24 h (upper panels) and 48 h (lower panels). Note network stabilization upon T5 over expression at 48 h. B Immunofluorescent staining of control (Vo), heparanase-, and T5-infected HUVEC cells applying anti-heparanase 733 antibody (green, left panels). Merged images with nuclear staining (Topro, red) are shown in the right panels. Note T5 localization to endocytic vesicles."}, "[6]": {"system": "CAG myeloma cells", "assay": "Cell proliferation by BrdU incorporation, CAG myeloma cells", "format": "cell-based, human", "conditions": "infected CAG cells, serum-free 20 h, BrdU 2 h; control Vo 24±3%", "experimental": "FIG. 4. T5 augments cell proliferation. A. BrdU incorporation. Morphology of control (Con), heparanase (Hepa)- and T5-infected CAG myeloma cell cultures is shown in the upper panels. […] Sub-confluent cultures of control (Vo), heparanase (Hepa)- and T5-infected CAG cells were grown in serum-free medium for 20 h followed by incubation with BrdU (1:1000) for 2 h. Cells were then fixed and immunostained with anti BrdU monoclonal antibody. Positively stained, red-brown nuclei were counted vs. blue, hematoxilin counter-stained nuclei. At least 1000 cells were counted for each cell type and the percentage of positively stained cells is noted in each panel. Fold increase in BrdU incorporation is shown graphically on the right panel. Gene silencing. 293 cells were transfected with anti-GFP (si-GFP), anti-heparanase (si-Hepa) or anti-T5 siRNA oligonucleotides and BrdU incorporation was evaluated as above except that cells were kept in serum-containing medium (lower panels). Note 2-fold decrease in BrdU incorporation following heparanase or T5 gene silencing (lower right panel). B. Colony formation in soft agar. […]\nCell proliferation was analyzed by BrdU incorporation using cell proliferation labeling reagent (1:1000, GE Healthcare), as described in Zetser, A., et al (2003 Cancer Res 63, 7733-7741). At least 1000 cells were counted for each cell type."}}, "data": [{"molecule": "B1", "values": [{"measurement": "interaction with the lectin Concanavalin A", "setting": "[1]", "result": "retained"}, {"measurement": "pericytes associated with blood vessels (smooth muscle actin)", "setting": "[2]; CAG xenografts, immunohistochemistry", "result": "significantly increased number of pericytes"}, {"measurement": "average weight of xenografts", "setting": "[2]; day 37, subcutaneous infected CAG cells, control 58±11 mg", "result": "738 ± 114", "unit": "mg"}, {"measurement": "development of tumor xenografts after day 21 vs control cells", "setting": "[2]; subcutaneous infected CAG cells", "result": "markedly enhanced"}, {"measurement": "heparin binding of protein in cell lysates", "setting": "[3]", "result": "failed to bind heparin"}, {"measurement": "effect on the activity of endogenous heparanase", "setting": "[4]; T5 vs. Vo transfected 293 cells", "result": "did not seem to significantly impinge on the activity of endogenous heparanase"}, {"measurement": "heparanase enzymatic activity", "setting": "[4]; lysates of stably transfected 293 cells, T5 vs. Hepa", "result": "lacks heparanase enzymatic activity"}, {"measurement": "endothelial cell organization (tube formation) on Matrigel", "setting": "[5]", "result": "maintained for a relatively long period of time"}, {"measurement": "BrdU incorporation (positively stained cells)", "setting": "[6]", "result": "52±5", "unit": "%"}]}]}
